Measured values: the RNAGym collection of RNA variant scans (doi:10.1093/molbev/msab373)

B1: Azoarcus group I ribozyme (parent)
chain: GUGCCUUGCGCCGGGAAACCACGCAAGGGAUGGUGUCAAAUUCGGCGAAACCUAAGCGCCCGCCCGGGCGUAUGGCAACGCCGAGCCAAGCUUCGGCGCCUGCGCCGAUGAAGGUGUAGAGACUAGACGGCACCCACCUAAGGCAAACGCUAUGGUGAAGGCAUAGUCCAGGGAGUGGCGAAAGUCACACAAACCGG

Variants of: B1
Assay: reverse-splicing fitness (ratio to wild type); higher = more active; in vitro selection; Mg2+ level not given
Procedure, shortened: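 An in vitro group I ribozyme library with randomized positions was T7-transcribed and gel-purified. In triplicate, 10 pmol RNA in EPPS pH 7.5 was reacted with 50 pmoles of a 30-nt RNA substrate for 1 h at 37 °C across several added MgCl2 levels (1–48 mM), then stopped with EDTA. Products were reverse transcribed from a substrate-complementary primer, PCR-amplified and sequenced (HiSeq 4000). Fitness is a variant's read proportion after selection over that before, normalised to wild type.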

Row | Variant | reverse-splicing fitness
1 | C82A A111C A120U A145G C150G C169A U176G | 0.00541
2 | C82A A111C A120U A145G C150G C169A U176A | 0.0122
3 | C82A A111C A120U A145G C150G C169A U176C | 0.0094
4 | C82A A111C A120U A145G C150U | 0.0191
5 | C82A A111C A120U A145G C150G | 0.00762
6 | C82A A111C A120U A145G C150A | 0.00897
7 | C82A A111C A120U A145G C150G C169U | 0.00759
8 | C82A A111C A120U A145G C150G C169A | 0.00782
9 | C82A A111C A120U A145G C150G C169G | 0.00663
10 | C82A A111C A120U A145G C150U C169U U176A | 0.00523
11 | C82A A111C A120U A145G C150U C169U U176C | 0.00469
12 | C82A A111C A120U A145G C150U C169U U176G | 0.00315
13 | C82A A111C A120U A145U C169A U176A | 0.00312
14 | C82A A111C A120U A145U C169A U176G | 0.00264
15 | C82A A111C A120U A145U C169A U176C | 0.00315
16 | C82A A111C A120U C150G C169G | 0.0061
17 | C82A A111C A120U C150G C169A | 0.00857
18 | C82A A111C A120U C150G C169U | 0.00639
19 | C82A A111C A120G C150G C169A U176G | 0.00659
20 | C82A A111C A120G C150G C169A U176A | 0.0102
21 | C82A A111C A120G C150G C169A U176C | 0.00996

Row | Variant | reverse-splicing fitness
22 | C82A A111C A120U A145C C150G C169G | 0.00355
23 | C82A A111C A120U A145C C150G C169U | 0.005
24 | C82A A111C A120U A145C C150G C169A | 0.00359
25 | C82A A111C A120G C150A U176G | 0.00789
26 | C82A A111C A120G C150A U176A | 0.0133
27 | C82A A111C A120G C150A U176C | 0.0233
28 | C82A A111C A120U A145C C150U | 0.00922
29 | C82A A111C A120U A145C C150A | 0.00399
30 | C82A A111C A120U A145C C150G | 0.00708
31 | C82A A111C A120G C150A C169U | 0.00723
32 | C82A A111C A120G C150A C169G | 0.00885
33 | C82A A111C A120G C150A C169A | 0.00919
34 | C82A A111C A120G A145U C150U C169U U176C | 0.012
35 | C82A A111C A120G A145U C150U C169U U176G | 0.00648
36 | C82A A111C A120G A145U C150U C169U U176A | 0.0153
37 | C82A A111C A120U A145C C150U U176G | 0.0028
38 | C82A A111C A120U A145C C150U U176A | 0.00424
39 | C82A A111C A120U A145C C150U U176C | 0.00525
40 | C82A A111C A120U C150A U176G | 0.00369
41 | C82A A111C A120U C150A U176A | 0.00497
42 | C82A A111C A120U C150A U176C | 0.00738

Row | Variant | reverse-splicing fitness
43 | C82A A111C A120G C150A C169A U176C | 0.0168
44 | C82A A111C A120G C150A C169A U176A | 0.0182
45 | C82A A111C A120G C150A C169A U176G | 0.00729
46 | C82A A111C A120U A145U C150U C169G U176A | 0.00315
47 | C82A A111C A120U A145U C150U C169G U176G | 0.00247
48 | C82A A111C A120U A145U C150U C169G U176C | 0.00338
49 | C82A A111C A120G C150A C169G U176A | 0.0187
50 | C82A A111C A120G C150A C169G U176C | 0.0234
51 | C82A A111C A120G C150A C169G U176G | 0.00735
52 | C82A A111C A120U A145G C150A C169U U176A | 0.00642
53 | C82A A111C A120U A145G C150A C169U U176G | 0.00328
54 | C82A A111C A120U A145G C150A C169U U176C | 0.00488
55 | C82A A111C A120U A145U C169U U176G | 0.002
56 | C82A A111C A120U A145U C169U U176A | 0.00262
57 | C82A A111C A120U A145U C169U U176C | 0.00253
58 | C82A A111C A120U C150G C169U U176A | 0.00407
59 | C82A A111C A120U C150G C169U U176C | 0.00486
60 | C82A A111C A120U C150G C169U U176G | 0.00331
61 | C82A A111C A120U A145G C150G C169G U176C | 0.00768
62 | C82A A111C A120U A145G C150G C169G U176G | 0.00456
63 | C82A A111C A120U A145G C150G C169G U176A | 0.0101

Row | Variant | reverse-splicing fitness
64 | C82A A111C A120U A145C C150A C169G U176C | 0.00345
65 | C82A A111C A120U A145C C150A C169G U176A | 0.0036
66 | C82A A111C A120U A145C C150A C169G U176G | 0.00211
67 | C82A A111C A120U A145U C150A C169U | 0.00332
68 | C82A A111C A120U A145U C150A C169G | 0.00349
69 | C82A A111C A120U A145U C150A C169A | 0.00298
70 | C82A A111C A120G C150U C169G U176A | 0.0134
71 | C82A A111C A120G C150U C169G U176G | 0.00594
72 | C82A A111C A120G C150U C169G U176C | 0.0169
73 | C82A A111C A120U A145G C169U U176C | 0.00417
74 | C82A A111C A120U A145G C169U U176A | 0.00527
75 | C82A A111C A120U A145G C169U U176G | 0.00234
76 | C82A A111C A120U A145C U176G | 0.00266
77 | C82A A111C A120U A145C U176A | 0.00599
78 | C82A A111C A120U A145C U176C | 0.00818
79 | C82A A111C A120U A145C C150G U176A | 0.00333
80 | C82A A111C A120U A145C C150G U176G | 0.00265
81 | C82A A111C A120U A145C C150G U176C | 0.00415
82 | C82A A111C A120U C150A C169A | 0.00599
83 | C82A A111C A120U C150A C169G | 0.00503
